# Measured values published in IntAct's records for PubMed 10220404.
# B1: Protein enabled (Drosophila melanogaster (Fruit fly)), Q8T4F7 (parent)
# chain: MAMKKLYAKTSFTSKKPSSAANSTPILAYHQQQHQQPGNGICEFQVVAPGHSGELMIRRSQSMHHKMSPPVGGLGSKSEYYSIEELQELDLLDYRHPMYHHYQQQELRQRYHEHEQLVLQLPKATSPKAGPIYEAPQRSQQQQDQMLYVPTAAQRDSSSSAAATSIASSSTLTSSPSPSSSSSLIFSTLRKCVSPSNPSVNPNQPSKTQPSKLGCSMSFSIRTTTATAATAAAANAATATLSTQQQQQQAQQQHKQHLYSNIHHYLIRQQQQKQHYTLQRRHNSVKDKFIGGITTIFAEQSIIGARASVMVYDDNQKKWVPSGSSSGLSKVQIYHHQQNNTFRVVGRKLQDHEVVINCSILKGLKYNQATATFHQWRDSKFVYGLNFSSQNDAENFARAMMHALEVLSGRVANNPGGPPTNGNGYEEDMGYRTMTSEDAAILRQNNSIGGHVTPSAQTPTSQTNQNNIPQSPPTPQGHHRTSSAPPAPQPQQQQQQQQAQQMGQPGSHYGPTGNGPTSNGLPQQVNSQIPPAPQQQPQQQQFQQQQQQQQYQQMVQAGYAPSQQYQQPHYVLSNSNPNLTVHQYPTQQAQQQPPQAPQPPLQNGGMYMVGHGHLPSSASANSVVYASQQQMLPQAHPQAPQAPTMPGPGYGGPPVPPPQQQAENPYGQVPMPPPMNPSQQQQPGQVPLNRMSSQGGPGGPPAPAPPPPPPSFGGAAGGGPPPPAPPQMFNGAPPPPAMGGGPPPAPPAPPAMGGGPPPAPGGPGAPPPPPPPPGLGGAPKKEDPQADLMGSLASQLQQIKLKKNKVTTSAPENSGSSTSSGGSGNYGTIGRSSNGMASMMDEMAKTLARRRAQAEKKDPDPEAEVKKRPWEKSNTLPHKLSGGAGSGSAGSGHEGANGNSGGAGSNTTNSGGESPRPMRKRFGSASEETILKVNGDGLSLALSNGDLDTLKAEIVREMRLEIQKVKNEIIDAIKSEFNRR
# Experiments:
# abl_drome Abl, P00522 = variants of: B1; settings: with abl_drome Abl
# src_mouse Src, P05480 = variants of: B1; settings: with src_mouse Src
# Sequence of abl_drome Abl, P00522 (P00522 whole entry): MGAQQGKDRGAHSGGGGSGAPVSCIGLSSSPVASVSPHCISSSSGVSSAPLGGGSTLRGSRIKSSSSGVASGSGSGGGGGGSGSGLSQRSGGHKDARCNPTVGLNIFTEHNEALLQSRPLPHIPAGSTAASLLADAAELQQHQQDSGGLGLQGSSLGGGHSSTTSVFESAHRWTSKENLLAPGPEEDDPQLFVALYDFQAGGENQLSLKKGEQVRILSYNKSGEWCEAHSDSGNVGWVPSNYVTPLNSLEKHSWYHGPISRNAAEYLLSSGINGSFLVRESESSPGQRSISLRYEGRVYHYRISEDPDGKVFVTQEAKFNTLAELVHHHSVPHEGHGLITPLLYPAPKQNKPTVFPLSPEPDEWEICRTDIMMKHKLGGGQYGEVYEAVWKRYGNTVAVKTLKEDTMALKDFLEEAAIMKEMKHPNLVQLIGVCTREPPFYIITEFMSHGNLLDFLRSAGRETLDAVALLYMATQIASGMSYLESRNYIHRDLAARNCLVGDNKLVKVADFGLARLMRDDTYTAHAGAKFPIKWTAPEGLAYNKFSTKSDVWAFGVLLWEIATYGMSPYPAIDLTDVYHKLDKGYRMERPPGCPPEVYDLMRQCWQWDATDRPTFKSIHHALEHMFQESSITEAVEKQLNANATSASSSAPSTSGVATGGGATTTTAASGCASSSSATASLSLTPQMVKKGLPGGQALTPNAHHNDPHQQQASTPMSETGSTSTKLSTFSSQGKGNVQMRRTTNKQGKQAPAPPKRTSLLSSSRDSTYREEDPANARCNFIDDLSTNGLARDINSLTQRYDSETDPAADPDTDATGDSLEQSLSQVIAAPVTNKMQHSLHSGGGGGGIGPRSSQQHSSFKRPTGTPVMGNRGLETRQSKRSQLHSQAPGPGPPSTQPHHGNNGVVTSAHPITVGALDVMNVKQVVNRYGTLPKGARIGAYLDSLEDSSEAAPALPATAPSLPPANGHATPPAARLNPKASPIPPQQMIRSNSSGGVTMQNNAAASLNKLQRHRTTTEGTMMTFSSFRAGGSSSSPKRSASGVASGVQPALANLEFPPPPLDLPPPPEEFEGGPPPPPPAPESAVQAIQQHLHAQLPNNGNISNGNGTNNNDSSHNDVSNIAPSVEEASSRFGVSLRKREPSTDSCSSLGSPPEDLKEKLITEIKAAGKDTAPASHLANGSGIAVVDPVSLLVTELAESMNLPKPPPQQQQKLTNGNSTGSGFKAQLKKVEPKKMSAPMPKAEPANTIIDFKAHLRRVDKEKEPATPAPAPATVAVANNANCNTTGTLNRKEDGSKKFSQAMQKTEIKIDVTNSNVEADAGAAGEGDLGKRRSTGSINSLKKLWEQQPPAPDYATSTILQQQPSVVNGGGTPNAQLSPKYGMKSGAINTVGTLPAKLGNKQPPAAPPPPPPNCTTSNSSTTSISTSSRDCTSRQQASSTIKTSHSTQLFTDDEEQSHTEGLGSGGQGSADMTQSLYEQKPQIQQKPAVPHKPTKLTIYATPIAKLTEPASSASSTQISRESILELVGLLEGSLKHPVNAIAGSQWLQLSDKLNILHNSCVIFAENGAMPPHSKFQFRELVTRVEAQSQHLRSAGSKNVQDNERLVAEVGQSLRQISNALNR
"effect of a mutation on the interaction (abl_drome Abl, P00522)","effect of a mutation on the interaction (src_mouse Src, P05480)",Variant
decreasing interaction,decreasing interaction,P763A;P770A;P771A;P772A
decreasing interaction,decreasing interaction,P701A;P707A;P708A;P709A
